Results on eleven substances are retold here after patent US20150232510A1.

One assay deals with Recombinant Human DPPIV/CD26 (R&D Systems, Inc.) (human) (UniProt P27487). As to the kind of experiment: cell-based or functional assay.
Sequence of UniProt P27487 (P27487 29-766 limits assumed): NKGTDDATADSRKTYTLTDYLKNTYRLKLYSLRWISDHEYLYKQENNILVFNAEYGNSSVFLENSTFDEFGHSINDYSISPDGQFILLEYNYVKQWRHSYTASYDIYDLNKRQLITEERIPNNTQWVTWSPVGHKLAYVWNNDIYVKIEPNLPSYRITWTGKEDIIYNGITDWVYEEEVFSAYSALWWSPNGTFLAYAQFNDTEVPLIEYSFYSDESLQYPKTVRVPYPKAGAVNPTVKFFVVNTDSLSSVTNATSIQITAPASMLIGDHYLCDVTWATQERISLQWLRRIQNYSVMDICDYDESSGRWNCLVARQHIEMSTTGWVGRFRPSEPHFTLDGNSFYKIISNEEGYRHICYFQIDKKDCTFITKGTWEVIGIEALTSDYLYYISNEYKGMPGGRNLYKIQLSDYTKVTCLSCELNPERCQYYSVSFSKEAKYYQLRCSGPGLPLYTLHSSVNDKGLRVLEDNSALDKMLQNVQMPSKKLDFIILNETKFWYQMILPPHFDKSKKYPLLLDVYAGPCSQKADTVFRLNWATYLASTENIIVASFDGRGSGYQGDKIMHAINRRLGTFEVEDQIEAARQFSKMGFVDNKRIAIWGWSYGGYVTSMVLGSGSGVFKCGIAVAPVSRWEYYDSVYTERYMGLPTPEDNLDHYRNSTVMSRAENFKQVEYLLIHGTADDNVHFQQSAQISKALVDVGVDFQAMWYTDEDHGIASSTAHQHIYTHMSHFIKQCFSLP
As to Val-Pro-Gly (peptide), the DPP-4 inhibiting activity IC50(µg/ml) is 3.4 µg/mL.

Consider Ile-Pro-Pro (peptide), for which the DPP-4 inhibiting activity IC50(µg/ml) is 1340 µg/mL.

For LY (peptide), the DPP-4 inhibiting activity IC50(µg/ml) is 486 µg/mL.

On to Val-Pro-Gln (peptide), for which the DPP-4 inhibiting activity IC50(µg/ml) was determined as 2.6 µg/mL.

Take Val-Pro-Tyr (peptide): the DPP-4 inhibiting activity IC50(µg/ml) was 7.15 µg/mL.

For Val-Pro-Ser (peptide), the DPP-4 inhibiting activity IC50(µg/ml) was 5.17 µg/mL.

Take Val-Pro-Lys (peptide): the DPP-4 inhibiting activity IC50(µg/ml) worked out at 10.4 µg/mL.

Turning to Val-Pro-Asn (peptide), the DPP-4 inhibiting activity IC50(µg/ml) turned out to be 5.7 µg/mL.

Regarding Val-Pro-Val (peptide), the DPP-4 inhibiting activity IC50(µg/ml) is 1 µg/mL.

Take Val-Pro-Pro (peptide): the DPP-4 inhibiting activity IC50(µg/ml) is more than 2000 µg/mL.

With Val-Pro-Ala (peptide), the DPP-4 inhibiting activity IC50(µg/ml) was found to be 1.9 µg/mL and the concentration for 50% inhibition of the enzymatic activity (dipeptidyl peptidase-IV inhibiting ability of HPLC Fraction 2) was 2 µg/mL.

The next assay addresses Angiotensin Converting Enzyme, from rabbit lung (SIGMA) (rabbit) (UniProt P12822). As to the kind of experiment: cell-based or functional assay.
Sequence of UniProt P12822 (P12822 34-1310 limits assumed): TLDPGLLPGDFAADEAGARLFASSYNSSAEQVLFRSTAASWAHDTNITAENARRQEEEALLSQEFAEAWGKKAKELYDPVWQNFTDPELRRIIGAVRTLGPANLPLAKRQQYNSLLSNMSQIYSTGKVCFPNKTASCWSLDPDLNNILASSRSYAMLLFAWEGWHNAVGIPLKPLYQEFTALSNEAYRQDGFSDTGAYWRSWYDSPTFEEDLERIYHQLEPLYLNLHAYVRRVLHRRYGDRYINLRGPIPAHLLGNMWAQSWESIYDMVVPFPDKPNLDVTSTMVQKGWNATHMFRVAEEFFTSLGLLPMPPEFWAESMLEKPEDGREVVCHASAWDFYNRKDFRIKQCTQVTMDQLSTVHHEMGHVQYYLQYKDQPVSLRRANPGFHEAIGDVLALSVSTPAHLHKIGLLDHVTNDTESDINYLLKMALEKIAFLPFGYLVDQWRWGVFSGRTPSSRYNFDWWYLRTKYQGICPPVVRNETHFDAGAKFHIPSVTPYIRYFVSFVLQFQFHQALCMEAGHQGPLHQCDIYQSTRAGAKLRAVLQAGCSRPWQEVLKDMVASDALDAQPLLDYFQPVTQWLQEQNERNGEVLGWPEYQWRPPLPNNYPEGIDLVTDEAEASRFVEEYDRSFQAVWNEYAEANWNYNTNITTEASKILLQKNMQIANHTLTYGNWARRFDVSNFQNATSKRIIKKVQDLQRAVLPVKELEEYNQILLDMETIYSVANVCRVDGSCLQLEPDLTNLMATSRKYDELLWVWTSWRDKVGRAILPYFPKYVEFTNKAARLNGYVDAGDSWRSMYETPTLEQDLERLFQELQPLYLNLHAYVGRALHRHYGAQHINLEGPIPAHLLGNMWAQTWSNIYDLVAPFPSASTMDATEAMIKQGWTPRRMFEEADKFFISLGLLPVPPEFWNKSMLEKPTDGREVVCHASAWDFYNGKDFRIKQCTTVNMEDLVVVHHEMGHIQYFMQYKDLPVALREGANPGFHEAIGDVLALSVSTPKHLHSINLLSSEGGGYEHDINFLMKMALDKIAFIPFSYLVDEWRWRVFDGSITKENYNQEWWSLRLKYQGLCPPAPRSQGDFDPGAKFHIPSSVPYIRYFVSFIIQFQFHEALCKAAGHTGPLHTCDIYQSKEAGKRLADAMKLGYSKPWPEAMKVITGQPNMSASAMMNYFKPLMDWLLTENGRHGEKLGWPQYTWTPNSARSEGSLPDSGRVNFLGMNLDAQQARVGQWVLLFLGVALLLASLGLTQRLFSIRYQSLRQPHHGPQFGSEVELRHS
For the substance Val-Pro-Lys (peptide), the ACE inhibiting activity, 50% inhibition concentration was determined as 132 µg/mL.

Regarding Val-Pro-Ala (peptide), the ACE inhibiting activity, 50% inhibition concentration amounted to 24.8 µg/mL.
